Test [1] addresses natural human Fc region prepared by papain digestion of human monoclonal IgG (Chugai Pharmaceutical Co., Ltd.) (human). Put plainly: SPR Biacore T100, Fc immobilized on CM5, peptide as analyte.
Test [2] has the same target. The test is described as follows: SPR, KD compared.
The target in test [3] is human Fc region manufactured by Jackson ImmunoResearch Laboratories, Inc. (human). Put plainly: SPR Biacore T100, Fc immobilized on CM5, peptide as analyte.
Test [4] has the same target. The test is described as follows: SPR, KD compared.
The target of test [5] is natural human Fc region prepared by papain digestion of human monoclonal IgG (Chugai Pharmaceutical Co., Ltd.) (human). The test is described as follows: SPR Biacore T100, Fc immobilized on CM5, polypeptide as analyte.
Test [6] has the same target. The test is described as follows: SPR Biacore T100, Fc immobilized on CM5, Scatchard plot of equilibrium values.

Consider 12 molecules from patent US20150377899A1.

Residue numbers refer to the chain shown, from its start.

Regarding DAAWHLGELVWATYYDPETGTWQPDWLYMTTR [pep14 peptide], the Kd in test [1] came to 0.12 µM. Molecule DAAWHLGELVWATYYDPETGTWLPDWQTMAQK [pep21 peptide] displayed a Kd in test [1] of 0.1 µM. This molecule displayed a fold improvement in affinity against the FcIII-Ala peptide in test [2] of 420 fold.

In test [3], GVVRQWSGGGGSGGGGRSSIAYGGG [2A1Gly peptide] had a dissociation constant (Kd) of 23 µM. In test [4], this molecule had a binding affinity as a fraction of that of the 2A1 peptide below 0.001.

B1: p17-2 peptide (designed binder)
chain: GPGISAFSPGRGVYDPETGTWYDAAWHLGELVWATYYDPETGTWEPDWQRMLGQ
For B1, the Kd in test [1] turned out to be 0.0016 µM. In test [2], this molecule yielded a fold improvement in binding affinity against the FcIII-Ala peptide of 26000 fold and a fold improvement in binding affinity against the pep24 peptide of 138 fold.

B2: p17_D47A (designed binder)
chain: B1 chain with D47A
Turning to B2, in test [5], the dissociation constant (Kd) was found to be 0.045 µM. That is a double-digit nanomolar value.

B3: p17_W48A (designed binder)
chain: B1 chain with W48A
With B3, in test [2], the fold reduction in binding affinity against p17-2 is above 100 fold. This molecule also gave a Kd in test [5] of 0.2 µM.

B4: p17_R50A (designed binder)
chain: B1 chain with R50A
B4 returned a Kd in test [5] of 0.0078 µM.

B5: p17_P46A (designed binder)
chain: B1 chain with P46A
In test [5], B5 yielded an equilibrium dissociation constant (Kd) of 0.0056 µM.

B6: p17_M51A (designed binder)
chain: B1 chain with M51A
Take B6: the fold reduction in binding affinity against p17-2 in test [2] is above 100 fold. In test [5], this molecule displayed a Kd of 0.18 µM. Regarding DAAWHLGELVWAT [FcIII-Ala peptide], the Kd in test [6] is 42 µM. In the case of DAAWHLGELVWATYYDPETGTWAPDWRLMQGQ [pep11 peptide], the Kd in test [1] is 0.51 µM. As to DAAWHLGELVWATYYDPETGTWEPDWQRMLGQ [pep24 peptide], the fold higher affinity against the particular sequence (FcIII-Ala) in test [2] was 190 fold.
